Test results from IntAct's records for PubMed 31515488.

B1: WASH complex subunit 3 (Homo sapiens), Q9Y3C0 (parent)
chain: MDEDGLPLMGSGIDLTKVPAIQQKRTVAFLNQFVVHTVQFLNRFSTVCEEKLADLSLRIQQIETTLNILDAKLSSIPGLDDVTVEVSPLNVTSVTNGAHPEATSEQPQQNSTQDSGLQESEVSAENILTVAKDPRYARYLKMVQVGVPVMAIRNKMISEGLDPDLLERPDAPVPDGESEKTVEESSDSESSFSD
B2: Isoform 1 of Myotubularin-related protein 9 (Homo sapiens), Q96QG7-1 (parent)
chain: MEFAELIKTPRVDNVVLHRPFYPAVEGTLCLTGHHLILSSRQDNTEELWLLHSNIDAIDKRFVGSLGTIIIKCKDFRIIQLDIPGMEECLNIASSIEALSTLDSITLMYPFFYRPMFEVIEDGWHSFLPEQEFELYSSATSEWRLSYVNKEFAVCPSYPPIVTVPKSIDDEALRKVATFRHGGRFPVLSYYHKKNGMVIMRSGQPLTGTNGRRCKEDEKLINATLRAGKRGYIIDTRSLNVAQQTRAKGGGFEQEAHYPQWRRIHKSIERYHILQESLIKLVEACNDQTHNMDRWLSKLEASNWLTHIKEILTTACLAAQCIDREGASILIHGTEGTDSTLQVTSLAQIILEPRSRTIRGFEALIEREWLQAGHPFQQRCAQSAYCNTKQKWEAPVFLLFLDCVWQILRQFPCSFEFNENFLIMLFEHAYASQFGTFLGNNESERCKLKLQQKTMSLWSWVNQPSELSKFTNPLFEANNLVIWPSVAPQSLPLWEGIFLRWNRSSKYLDEAYEEMVNIIEYNKELQAKVNILRRQLAELETEDGMQESP

Variants of: B1
Conditions: with optn_human OPTN

effect of a mutation on the interaction | Variant
with no effect | MDEDGLPLMGSGIDLTKVPAIQQKRTVAFLNQFVVHTVQFLNRLSTVCEEKLADLSLRIQQIETTLNILDAKLSSIPGLDDVTVEVSPLNVTSVTNGAHPEATSEQPQQNSTQDSGLQESEVSAENILTVAKDPRYARYLKMVQVGVPVMAIRNKMISEGLDPDLLERPDAPVPDGESEKTVEESSDSESSFSD

Variants of: B1
Conditions: with ift20_human IFT20, Q8IY31
Chain of ift20_human IFT20, Q8IY31 (Q8IY31 whole entry): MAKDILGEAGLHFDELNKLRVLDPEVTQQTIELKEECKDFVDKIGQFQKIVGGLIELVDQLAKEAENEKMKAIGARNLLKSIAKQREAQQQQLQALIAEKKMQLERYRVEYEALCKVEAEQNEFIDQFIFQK

effect of a mutation on the interaction | Variant
with no effect | MDEDGLPLMGSGIDLTKVPAIQQKRTVAFLNQFVVHTVQFLNRLSTVCEEKLADLSLRIQQIETTLNILDAKLSSIPGLDDVTVEVSPLNVTSVTNGAHPEATSEQPQQNSTQDSGLQESEVSAENILTVAKDPRYARYLKMVQVGVPVMAIRNKMISEGLDPDLLERPDAPVPDGESEKTVEESSDSESSFSD

Variants of: B1
Conditions: with abi2_human ABI2, Q9NYB9
Chain of abi2_human ABI2, Q9NYB9 (Q9NYB9 whole entry): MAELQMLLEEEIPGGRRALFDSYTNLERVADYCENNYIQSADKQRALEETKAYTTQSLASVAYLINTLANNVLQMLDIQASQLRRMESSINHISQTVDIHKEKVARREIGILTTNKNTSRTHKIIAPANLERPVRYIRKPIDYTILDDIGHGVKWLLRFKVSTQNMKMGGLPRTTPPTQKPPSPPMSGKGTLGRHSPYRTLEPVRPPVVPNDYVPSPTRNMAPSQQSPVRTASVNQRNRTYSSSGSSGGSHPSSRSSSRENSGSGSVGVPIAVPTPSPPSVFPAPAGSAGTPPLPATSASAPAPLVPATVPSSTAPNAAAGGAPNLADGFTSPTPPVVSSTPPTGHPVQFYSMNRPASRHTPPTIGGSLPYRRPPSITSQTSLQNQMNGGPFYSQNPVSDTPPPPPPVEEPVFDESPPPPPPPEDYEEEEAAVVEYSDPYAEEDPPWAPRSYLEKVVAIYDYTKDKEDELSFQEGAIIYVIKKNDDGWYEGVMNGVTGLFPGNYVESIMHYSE

effect of a mutation on the interaction | Variant
disrupting interaction strength | MDEDGLPLMGSGIDLTKVPAIQQKRTVAFLNQFVVHTVQFLNRLSTVCEEKLADLSLRIQQIETTLNILDAKLSSIPGLDDVTVEVSPLNVTSVTNGAHPEATSEQPQQNSTQDSGLQESEVSAENILTVAKDPRYARYLKMVQVGVPVMAIRNKMISEGLDPDLLERPDAPVPDGESEKTVEESSDSESSFSD

Variants of: B1
Conditions: with ndc80_human NDC80, O14777
Chain of ndc80_human NDC80, O14777 (O14777 whole entry): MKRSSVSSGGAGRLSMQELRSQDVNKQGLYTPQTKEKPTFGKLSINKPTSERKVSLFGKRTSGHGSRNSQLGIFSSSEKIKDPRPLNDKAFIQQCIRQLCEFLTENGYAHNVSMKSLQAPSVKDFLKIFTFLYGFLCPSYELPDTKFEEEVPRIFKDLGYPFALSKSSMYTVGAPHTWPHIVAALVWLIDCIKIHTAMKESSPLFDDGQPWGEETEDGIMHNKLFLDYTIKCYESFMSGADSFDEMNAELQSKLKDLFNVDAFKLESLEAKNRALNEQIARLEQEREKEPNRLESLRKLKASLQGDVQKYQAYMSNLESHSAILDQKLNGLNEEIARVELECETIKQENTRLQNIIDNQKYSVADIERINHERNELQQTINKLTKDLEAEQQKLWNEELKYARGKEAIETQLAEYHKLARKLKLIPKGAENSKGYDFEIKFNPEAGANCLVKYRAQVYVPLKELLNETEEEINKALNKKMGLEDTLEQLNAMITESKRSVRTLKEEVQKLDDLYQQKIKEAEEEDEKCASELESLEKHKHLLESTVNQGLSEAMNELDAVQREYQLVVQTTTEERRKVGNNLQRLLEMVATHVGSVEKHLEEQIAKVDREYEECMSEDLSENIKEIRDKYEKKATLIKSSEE

effect of a mutation on the interaction | Variant
with no effect | MDEDGLPLMGSGIDLTKVPAIQQKRTVAFLNQFVVHTVQFLNRLSTVCEEKLADLSLRIQQIETTLNILDAKLSSIPGLDDVTVEVSPLNVTSVTNGAHPEATSEQPQQNSTQDSGLQESEVSAENILTVAKDPRYARYLKMVQVGVPVMAIRNKMISEGLDPDLLERPDAPVPDGESEKTVEESSDSESSFSD

Variants of: B1
Conditions: with pcm1_human PCM1, Q15154
Chain of pcm1_human PCM1, Q15154 (Q15154 whole entry): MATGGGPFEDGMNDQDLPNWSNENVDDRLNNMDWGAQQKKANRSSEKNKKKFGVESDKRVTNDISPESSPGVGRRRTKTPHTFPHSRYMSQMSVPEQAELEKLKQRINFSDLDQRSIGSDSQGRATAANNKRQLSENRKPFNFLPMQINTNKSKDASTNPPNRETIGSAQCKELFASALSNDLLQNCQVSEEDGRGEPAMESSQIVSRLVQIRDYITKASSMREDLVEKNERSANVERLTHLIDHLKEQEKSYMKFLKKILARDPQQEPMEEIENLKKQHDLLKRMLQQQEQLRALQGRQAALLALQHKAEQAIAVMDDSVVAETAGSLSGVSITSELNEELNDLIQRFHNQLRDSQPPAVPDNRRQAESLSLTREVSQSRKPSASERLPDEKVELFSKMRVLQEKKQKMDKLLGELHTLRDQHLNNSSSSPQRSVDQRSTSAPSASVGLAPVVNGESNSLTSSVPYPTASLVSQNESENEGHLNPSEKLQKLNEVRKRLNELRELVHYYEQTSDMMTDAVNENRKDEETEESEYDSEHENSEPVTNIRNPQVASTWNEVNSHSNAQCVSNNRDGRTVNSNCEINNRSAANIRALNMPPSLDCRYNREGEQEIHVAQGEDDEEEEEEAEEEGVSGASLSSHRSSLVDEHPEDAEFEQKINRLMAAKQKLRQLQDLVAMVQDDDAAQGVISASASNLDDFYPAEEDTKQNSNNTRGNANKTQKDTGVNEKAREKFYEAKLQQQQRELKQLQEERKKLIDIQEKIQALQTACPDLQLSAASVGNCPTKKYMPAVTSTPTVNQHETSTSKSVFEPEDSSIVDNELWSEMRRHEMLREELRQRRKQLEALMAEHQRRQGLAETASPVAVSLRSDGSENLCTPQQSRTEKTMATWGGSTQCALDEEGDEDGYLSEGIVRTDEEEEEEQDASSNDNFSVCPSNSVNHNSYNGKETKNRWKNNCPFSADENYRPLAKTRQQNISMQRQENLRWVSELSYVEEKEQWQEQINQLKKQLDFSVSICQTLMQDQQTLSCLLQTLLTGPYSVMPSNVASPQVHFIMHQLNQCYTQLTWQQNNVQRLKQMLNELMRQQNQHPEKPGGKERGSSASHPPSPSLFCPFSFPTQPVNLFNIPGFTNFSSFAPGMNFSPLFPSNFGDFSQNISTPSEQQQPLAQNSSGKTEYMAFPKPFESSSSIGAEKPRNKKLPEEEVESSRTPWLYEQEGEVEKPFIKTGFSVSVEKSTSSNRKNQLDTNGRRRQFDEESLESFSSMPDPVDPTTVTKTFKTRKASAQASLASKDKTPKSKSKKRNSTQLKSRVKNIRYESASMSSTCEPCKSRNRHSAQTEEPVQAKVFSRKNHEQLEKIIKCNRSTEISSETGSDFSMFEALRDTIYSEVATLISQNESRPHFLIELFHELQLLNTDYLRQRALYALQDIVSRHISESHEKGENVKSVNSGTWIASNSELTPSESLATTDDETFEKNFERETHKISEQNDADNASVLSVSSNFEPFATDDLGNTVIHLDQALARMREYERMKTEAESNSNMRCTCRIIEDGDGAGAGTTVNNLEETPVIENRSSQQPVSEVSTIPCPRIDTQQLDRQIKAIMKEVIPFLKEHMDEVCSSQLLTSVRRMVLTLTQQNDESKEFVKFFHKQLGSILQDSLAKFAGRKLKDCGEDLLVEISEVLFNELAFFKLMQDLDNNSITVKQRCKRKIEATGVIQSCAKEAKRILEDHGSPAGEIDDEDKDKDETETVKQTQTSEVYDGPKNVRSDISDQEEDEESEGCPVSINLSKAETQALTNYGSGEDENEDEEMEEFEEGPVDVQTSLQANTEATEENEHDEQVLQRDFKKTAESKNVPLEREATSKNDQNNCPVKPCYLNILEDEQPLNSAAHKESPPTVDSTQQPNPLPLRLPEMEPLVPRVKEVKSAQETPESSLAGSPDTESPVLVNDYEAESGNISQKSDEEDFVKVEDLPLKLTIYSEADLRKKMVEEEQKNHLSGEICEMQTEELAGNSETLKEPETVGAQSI

effect of a mutation on the interaction | Variant
with no effect | MDEDGLPLMGSGIDLTKVPAIQQKRTVAFLNQFVVHTVQFLNRLSTVCEEKLADLSLRIQQIETTLNILDAKLSSIPGLDDVTVEVSPLNVTSVTNGAHPEATSEQPQQNSTQDSGLQESEVSAENILTVAKDPRYARYLKMVQVGVPVMAIRNKMISEGLDPDLLERPDAPVPDGESEKTVEESSDSESSFSD

Variants of: B1
Conditions: with mcrs1_human MCRS1, Q96EZ8

effect of a mutation on the interaction | Variant
with no effect | MDEDGLPLMGSGIDLTKVPAIQQKRTVAFLNQFVVHTVQFLNRLSTVCEEKLADLSLRIQQIETTLNILDAKLSSIPGLDDVTVEVSPLNVTSVTNGAHPEATSEQPQQNSTQDSGLQESEVSAENILTVAKDPRYARYLKMVQVGVPVMAIRNKMISEGLDPDLLERPDAPVPDGESEKTVEESSDSESSFSD

Variants of: B1
Conditions: with txlna_human TXLNA

effect of a mutation on the interaction | Variant
with no effect | MDEDGLPLMGSGIDLTKVPAIQQKRTVAFLNQFVVHTVQFLNRLSTVCEEKLADLSLRIQQIETTLNILDAKLSSIPGLDDVTVEVSPLNVTSVTNGAHPEATSEQPQQNSTQDSGLQESEVSAENILTVAKDPRYARYLKMVQVGVPVMAIRNKMISEGLDPDLLERPDAPVPDGESEKTVEESSDSESSFSD

Variants of: B2
Conditions: with emil1_human EMILIN1, Q9Y6C2
Chain of emil1_human EMILIN1, Q9Y6C2 (Q9Y6C2 whole entry): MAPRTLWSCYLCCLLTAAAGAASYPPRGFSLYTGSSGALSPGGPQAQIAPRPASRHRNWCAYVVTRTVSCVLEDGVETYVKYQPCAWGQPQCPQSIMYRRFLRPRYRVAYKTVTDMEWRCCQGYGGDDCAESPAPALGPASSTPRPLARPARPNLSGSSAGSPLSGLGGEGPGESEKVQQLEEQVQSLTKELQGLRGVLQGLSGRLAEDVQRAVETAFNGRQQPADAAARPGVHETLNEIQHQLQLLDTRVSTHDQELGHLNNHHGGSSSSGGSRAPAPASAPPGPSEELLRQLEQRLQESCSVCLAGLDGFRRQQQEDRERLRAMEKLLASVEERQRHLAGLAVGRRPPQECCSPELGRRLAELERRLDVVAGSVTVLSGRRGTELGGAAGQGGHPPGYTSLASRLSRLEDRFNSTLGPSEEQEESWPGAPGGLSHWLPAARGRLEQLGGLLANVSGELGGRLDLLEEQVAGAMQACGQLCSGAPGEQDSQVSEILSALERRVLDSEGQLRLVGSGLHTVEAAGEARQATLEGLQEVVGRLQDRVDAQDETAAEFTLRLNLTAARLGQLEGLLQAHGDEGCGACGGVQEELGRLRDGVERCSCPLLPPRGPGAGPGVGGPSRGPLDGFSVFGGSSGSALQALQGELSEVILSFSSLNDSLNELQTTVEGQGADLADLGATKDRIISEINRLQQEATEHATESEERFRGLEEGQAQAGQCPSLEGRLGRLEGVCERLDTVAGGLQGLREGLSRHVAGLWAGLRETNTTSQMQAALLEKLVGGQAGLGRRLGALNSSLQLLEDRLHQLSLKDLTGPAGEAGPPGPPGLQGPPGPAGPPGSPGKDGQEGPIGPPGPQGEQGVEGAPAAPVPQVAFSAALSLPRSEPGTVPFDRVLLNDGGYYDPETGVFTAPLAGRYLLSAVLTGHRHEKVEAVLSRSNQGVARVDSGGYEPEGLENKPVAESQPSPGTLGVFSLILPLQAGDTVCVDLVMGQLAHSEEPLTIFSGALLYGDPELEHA

effect of a mutation on the interaction | Variant
with no effect | MEFAELIKTPRVDNVVLHRPFYPAVEGTLCLTGHHLILSSRQDNTEELWLLHSNIDAIDKRFVGSLGTIIIKCKDFRIIQLDIPGMEECLNIASSIEALSTLDSITLMYPFFYRPMFEVIEDGWHSILPEQEFELYSSATSEWRLSYVNKEFAVCPSYPPIVTVPKSIDDEALRKVATFRHGGRFPVLSYYHKKNGMVIMRSGQPLTGTNGRRCKEDEKLINATLRAGKRGYIIDTRSLNVAQQTRAKGGGFEQEAHYPQWRRIHKSIERYHILQESLIKLVEACNDQTHNMDRWLSKLEASNWLTHIKEILTTACLAAQCIDREGASILIHGTEGTDSTLQVTSLAQIILEPRSRTIRGFEALIEREWLQAGHPFQQRCAQSAYCNTKQKWEAPVFLLFLDCVWQILRQFPCSFEFNENFLIMLFEHAYASQFGTFLGNNESERCKLKLQQKTMSLWSWVNQPSELSKFTNPLFEANNLVIWPSVAPQSLPLWEGIFLRWNRSSKYLDEAYEEMVNIIEYNKELQAKVNILRRQLAELETEDGMQESP [F127I]

Variants of: B2
Conditions: with lnx1_human LNX1, Q8TBB1
Chain of lnx1_human LNX1, Q8TBB1 (Q8TBB1 whole entry): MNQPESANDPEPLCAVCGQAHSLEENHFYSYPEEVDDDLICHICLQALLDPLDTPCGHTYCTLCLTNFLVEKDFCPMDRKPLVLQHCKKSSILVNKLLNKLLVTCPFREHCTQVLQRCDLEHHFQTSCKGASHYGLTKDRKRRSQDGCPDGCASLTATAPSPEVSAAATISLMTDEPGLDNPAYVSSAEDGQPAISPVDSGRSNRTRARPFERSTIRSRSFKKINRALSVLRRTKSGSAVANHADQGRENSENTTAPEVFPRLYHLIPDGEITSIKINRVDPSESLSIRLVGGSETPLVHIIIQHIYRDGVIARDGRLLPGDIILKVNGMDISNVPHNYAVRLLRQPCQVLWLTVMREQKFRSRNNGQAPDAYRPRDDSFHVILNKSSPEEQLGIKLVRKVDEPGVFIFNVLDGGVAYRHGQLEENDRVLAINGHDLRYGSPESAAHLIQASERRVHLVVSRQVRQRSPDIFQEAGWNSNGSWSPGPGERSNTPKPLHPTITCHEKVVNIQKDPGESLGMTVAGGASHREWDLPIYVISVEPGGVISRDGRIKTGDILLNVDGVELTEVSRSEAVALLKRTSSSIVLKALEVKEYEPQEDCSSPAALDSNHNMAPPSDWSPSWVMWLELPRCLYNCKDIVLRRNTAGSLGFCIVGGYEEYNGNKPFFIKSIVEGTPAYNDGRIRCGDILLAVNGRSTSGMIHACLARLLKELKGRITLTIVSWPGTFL

effect of a mutation on the interaction | Variant
with no effect | MEFAELIKTPRVDNVVLHRPFYPAVEGTLCLTGHHLILSSRQDNTEELWLLHSNIDAIDKRFVGSLGTIIIKCKDFRIIQLDIPGMEECLNIASSIEALSTLDSITLMYPFFYRPMFEVIEDGWHSILPEQEFELYSSATSEWRLSYVNKEFAVCPSYPPIVTVPKSIDDEALRKVATFRHGGRFPVLSYYHKKNGMVIMRSGQPLTGTNGRRCKEDEKLINATLRAGKRGYIIDTRSLNVAQQTRAKGGGFEQEAHYPQWRRIHKSIERYHILQESLIKLVEACNDQTHNMDRWLSKLEASNWLTHIKEILTTACLAAQCIDREGASILIHGTEGTDSTLQVTSLAQIILEPRSRTIRGFEALIEREWLQAGHPFQQRCAQSAYCNTKQKWEAPVFLLFLDCVWQILRQFPCSFEFNENFLIMLFEHAYASQFGTFLGNNESERCKLKLQQKTMSLWSWVNQPSELSKFTNPLFEANNLVIWPSVAPQSLPLWEGIFLRWNRSSKYLDEAYEEMVNIIEYNKELQAKVNILRRQLAELETEDGMQESP [F127I]

Variants of: B2
Conditions: with lnx1_human LNX1, Q8TBB1
Remark: another data set of the same source

effect of a mutation on the interaction | Variant
disrupting interaction strength | MEFAELIKTPRVDNVVLHRPFYPAVEGTLCLTGHHLILSSRQDNTEELWLLHSNIDAIDKRFVGSLGTIIIKCKDFRIIQLDIPGMEECLNIASSIEALSTLDSITLMYPFFYRPMFEVIEDGWHCFLPEQEFELYSSATSEWRLSYVNKEFAVCPSYPPIVTVPKSIDDEALRKVATFRHGGRFPVLSYYHKKNGMVIMRSGQPLTGTNGRRCKEDEKLINATLRAGKRGYIIDTRSLNVAQQTRAKGGGFEQEAHYPQWRRIHKSIERYHILQESLIKLVEACNDQTHNMDRWLSKLEASNWLTHIKEILTTACLAAQCIDREGASILIHGTEGTDSTLQVTSLAQIILEPRSRTIRGFEALIEREWLQAGHPFQQRCAQSAYCNTKQKWEAPVFLLFLDCVWQILRQFPCSFEFNENFLIMLFEHAYASQFGTFLGNNESERCKLKLQQKTMSLWSWVNQPSELSKFTNPLFEANNLVIWPSVAPQSLPLWEGIFLRWNRSSKYLDEAYEEMVNIIEYNKELQAKVNILRRQLAELETEDGMQESP [S126C]

Variants of: B2
Conditions: with emil1_human EMILIN1, Q9Y6C2
Remark: another data set of the same source

effect of a mutation on the interaction | Variant
with no effect | MEFAELIKTPRVDNVVLHRPFYPAVEGTLCLTGHHLILSSRQDNTEELWLLHSNIDAIDKRFVGSLGTIIIKCKDFRIIQLDIPGMEECLNIASSIEALSTLDSITLMYPFFYRPMFEVIEDGWHCFLPEQEFELYSSATSEWRLSYVNKEFAVCPSYPPIVTVPKSIDDEALRKVATFRHGGRFPVLSYYHKKNGMVIMRSGQPLTGTNGRRCKEDEKLINATLRAGKRGYIIDTRSLNVAQQTRAKGGGFEQEAHYPQWRRIHKSIERYHILQESLIKLVEACNDQTHNMDRWLSKLEASNWLTHIKEILTTACLAAQCIDREGASILIHGTEGTDSTLQVTSLAQIILEPRSRTIRGFEALIEREWLQAGHPFQQRCAQSAYCNTKQKWEAPVFLLFLDCVWQILRQFPCSFEFNENFLIMLFEHAYASQFGTFLGNNESERCKLKLQQKTMSLWSWVNQPSELSKFTNPLFEANNLVIWPSVAPQSLPLWEGIFLRWNRSSKYLDEAYEEMVNIIEYNKELQAKVNILRRQLAELETEDGMQESP [S126C]
